Experimental findings from paper PMC9151340 are described below.

T1: GlnR (UniProt F2RFQ1 1-276)
T1 sequence: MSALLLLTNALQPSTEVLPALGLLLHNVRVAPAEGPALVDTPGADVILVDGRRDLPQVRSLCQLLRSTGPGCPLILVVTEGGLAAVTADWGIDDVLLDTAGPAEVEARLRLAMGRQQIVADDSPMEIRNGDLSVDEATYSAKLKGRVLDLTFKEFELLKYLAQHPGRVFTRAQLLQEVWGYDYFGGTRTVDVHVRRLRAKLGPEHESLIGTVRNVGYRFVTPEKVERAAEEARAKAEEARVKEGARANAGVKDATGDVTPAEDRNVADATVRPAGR

T2: MtrA (UniProt F2R521 1-225)
T2 sequence: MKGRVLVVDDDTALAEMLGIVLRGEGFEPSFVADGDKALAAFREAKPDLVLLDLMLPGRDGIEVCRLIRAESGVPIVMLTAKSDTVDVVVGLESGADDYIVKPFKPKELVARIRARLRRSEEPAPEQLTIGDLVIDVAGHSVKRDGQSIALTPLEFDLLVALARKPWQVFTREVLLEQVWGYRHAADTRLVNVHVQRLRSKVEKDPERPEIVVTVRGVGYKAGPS

B1: mtrA WT (SVEN2756 WT) (dsDNA)
DNA 1: TACGGTGCAGGCCGACCACGGGGGCCCACGGGGGTGACATCCATGTCTGGCATCAACAC
DNA 2: GTGTTGATGCCAGACATGGATGTCACCCCCGTGGGCCCCCGTGGTCGGCCTGCACCGTA
B2: SVEN1860 WT (dsDNA)
DNA 1: GTTTCATCAGTGTTTGACCACCGGGTCACGCCCTGGTAACACCAGTCTGTGAGCCTGGT
DNA 2: ACCAGGCTCACAGACTGGTGTTACCAGGGCGTGACCCGGTGGTCAAACACTGATGAAAC
B3: nirB-WT (dsDNA)
DNA 1: GGAGATCAGCGTTCCGTACGGGAAACAGTCGGGATGCCGCCGGGTAACACCGGCCGCGC
DNA 2: GCGCGGCCGGTGTTACCCGGCGGCATCCCGACTGTTTCCCGTACGGAACGCTGATCTCC
B4: mtrA M3 (SVEN2756 M3) (dsDNA)
DNA 1: TACGGTGCAGGCCGACCACGGGGGCCCACGGGGAGGCTATCCATACTTGGCATCAACAC
DNA 2: GTGTTGATGCCAAGTATGGATAGCCTCCCCGTGGGCCCCCGTGGTCGGCCTGCACCGTA
B5: mtrA M2 (SVEN2756 M2) (dsDNA)
DNA 1: TACGGTGCAGGCCGACCACGGGGGCCCACGGGGGTGACATCCATACTTGGCATCAACAC
DNA 2: GTGTTGATGCCAAGTATGGATGTCACCCCCGTGGGCCCCCGTGGTCGGCCTGCACCGTA
B6: mtrA M1 (SVEN2756 M1) (dsDNA)
DNA 1: TACGGTGCAGGCCGACCACGGGGGCCCACGGGGAGGCTATCCATGTCTGGCATCAACAC
DNA 2: GTGTTGATGCCAGACATGGATAGCCTCCCCGTGGGCCCCCGTGGTCGGCCTGCACCGTA

The target in one data set is T1, GlnR. Briefly: EMSA. In general terms: Mobility shift assays separate free from complexed probe on a gel.
On to B1, for which the binding result is listed as “binds”.

Another data set deals with T2, MtrA. Briefly: EMSA.
Regarding B2, the binding result is listed as “binds”.

Turning to B3, the binding result is reported as “binds”.

For B1, the binding result was “binds”. On the same count and under the same terms, as for B4, the entry is “no binding”. The same measure, in the same setting: the entry for B5 is “no binding”; for B6 it is “no binding”.
